The source of these data is publication PMC5216522, “Pyruvic oxime dioxygenase from heterotrophic nitrifier Alcaligenes faecalis is a nonheme Fe^(II)-dependent enzyme homologous to class II aldolase” (Scientific Reports, 2017).

Substrate in the series: CC(=NO)C(=O)O
The experiment in a line: nitrite production by diazo-coupling, Hanes-Woolf plot. It is filed as biochemical, Alcaligenes faecalis. The following applies: Fe(II)-reconstituted enzyme, 10 mM Tris-HCl pH 8.0, 1 mM sodium ascorbate, 100 μM FeSO4, 37 °C, co-substrate O2, kcat apparent, per subunit.

B1: rPOD (recombinant pyruvic oxime dioxygenase) (Alcaligenes faecalis) (protein)
chain: MDTPLRDKSYFDERATKEMATHLQQVQRDTRETMAFACRILAMTEQEAGLAGQISVRSERPGAYWTLRFGLGFDEATPEDFIEVDRDLNTLSGEGMANPATRFHLWVYEARPDVNSIIHTHSPWATVLATARQPLVISQMDMTPLHNDCAFLGEWPGVPIADQEGVIISKALGDKRAIILAHHGYLTAGKSCQEATYLSVYLERAARLQVRAQAAFGPLTPVDDTLAAEAHDYLLKPSIVNATFDYWSRQTQGIAPLTKTR
notes: full length, 261 residues, 29,106 Da; pET21a(+) NdeI/XhoI with own stop codon, untagged; expressed in E. coli BL21(DE3)-CodonPlus; homotetramer (135 kDa by gel filtration); Fe(II)-reconstituted
As to B1, the Michaelis constant (Km) is 470 µM and the catalytic constant (kcat) turned out to be 4.69 s⁻¹.
